Experimental data as given in publication PMC7588467.

Biological target: OP protein cage
Assay: cryo-EM structure; OP cages empty, with SDS (800 equiv.) or with SDS:CS, in TSEC buffer; octahedral symmetry imposed; rigid-body fit of the OP crystal structure (PDB 6FDB)

OP protein cage
stoichiometry N (monomers per cage): 24
